In the test the test system is E. coli. In words: Tests with E. coli: expression of the domain 3 of EF-Tu in cells, electron microscope pictures. It counts as cell-based, Escherichia coli. The source says:
One especially advantageous procedure of the invention is as follows. The DNA segment of the EF-Tu gene of Escherichia coli that codes for the domain 3 is obtained and by means of molecular-genetic techniques is transferred into E. coli cells and expressed. In addition to this recombinant segment that contains solely the domain 3, but not domains 1 and 2 of EF-Tu, the cells as before have the native EF-Tu gene and can express it. The additionally synthesized domain 3 polypeptides, however, compete with the native EF-Tu proteins around the binding sites for the formation of the protofilaments. If a domain-3 polypeptide instead of a native EF-Tu protein is incorporated as a link, this leads to chain rupture as a result of the absence of the second binding site (the domain 2 is essential for chain formation) on the domain-3 polypeptide. […] As a result of the loss of integrity of the cytoskeleton, the cytoplasmic membrane of the cell loses it suspension. […] In this way, the cell wall that in the living bacteria cell is positioned and supported by the cytoplasmic membrane is destroyed (see FIG. 5). The loss of the cell wall and the cytoplasmic membrane means exposure of the contents of the cell so that the cell is lysed (cf. FIGS. 5 and 6). The cell contents can thus be recovered without further cell digestion.
Tests with E. coli, Electron microscope pictures, negative contrasting • a) Intact bacteria cells, containing their chromosome and in addition an empty vector (plasmid) that was used in continuing tests as a vector for introducing the domain-3 gene segment. These cells therefore represent controls. • b) Cells of a young culture. A plasmid that in expressible form contains the gene segment that codes for the domain 3 of EF-Tu had been introduced into these cells before the start of cultivation, in addition to its own native chromosome (that does contain the gene that codes intact EF-Tu). The effect of the expression of this “truncated” gene can be clearly seen: In addition to some cells that appear intact (they are recognizable as already weakened in their cell coating with a more exact analysis), the picture is determined by cell residues that indicate the original cell form, but have neither a wall nor CM. The wall and the CM have lost their suspension by destabilization of the cytoskeleton. […] The onetime cell form can no longer be detected; the cell residues form unorganized aggregations

Setting [1] is: ultrathin section, expressed in addition to the cell's own EF-Tu.

Consider “EF-Tu: Full-length bacterial elongation factor EF-Tu introduced by genetic engineering and expressed in addition to the cell's own EF-Tu (control) [reference compound]”, for which the “state of the cells in electron microscope picture” value (“state of the cells” below) under setting [1] is given as “the cell is intact”.

B1: domain 3 of EF-Tu: Polypeptide containing solely domain 3 (amino acids 299 to 394) of E. coli EF-Tu, expressed intracellularly from an introduced gene segment (protein)
chain: IKPHTKFESEVYILSKDEGGRHTPFFKGYRPQFYFRTTDVTGTIELPEGVEMVMPGDNIKMVVTLIHPIAMDDGLRFAIREGGRTVGAGVVAKVLG
As to B1, the “state of the cells” value (negative contrasting, cells of a young culture, plasmid expression in addition to native EF-Tu) is “The cell contents are exposed”; the “state of the cells” value (negative contrasting, old culture) is on record as “End stage of the dissolution of the cells”; the “state of the cells” value under setting [1] is reported as “End stage of the dissolution of the cells”.

Source of the values: patent US20060172407A1, “Bacterial cell digestion” (priority 2002, published 2006).
